Reference: patent US20100204099A1 (ALBERT EINSTEIN COLLEGE OF MEDICINE OF YESHIVA UNIVERSITY, published 2010)
Where no end group is shown, it is not given here.

Experiments:
[1] = molecular target: T1, IGF binding protein-3 (IGFBP-3) (human, UniProt P17936 28-291, 125-I-labeled when used as probe in the dot blot); experiment: dot blot on nitrocellulose probed with 125-I-labeled IGFBP-3, autoradiography and densitometry (FIG. 17A)
T1 construct: also called hIGFBP-3; non glycosylated hIGFBP-3

[2] = molecular target: T1, IGF binding protein-3 (IGFBP-3); experiment: dot blot of peptides probed with 125-I-labeled IGFBP-3 (FIG. 17A)

T1 sequence (P17936 28-291 limits assumed): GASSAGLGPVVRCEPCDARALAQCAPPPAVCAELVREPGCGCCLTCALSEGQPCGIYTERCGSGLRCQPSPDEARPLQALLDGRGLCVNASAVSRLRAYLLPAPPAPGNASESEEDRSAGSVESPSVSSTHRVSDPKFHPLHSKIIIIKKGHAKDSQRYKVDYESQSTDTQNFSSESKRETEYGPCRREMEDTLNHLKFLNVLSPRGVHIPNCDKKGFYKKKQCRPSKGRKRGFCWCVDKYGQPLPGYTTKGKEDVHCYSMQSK

binding result [2]	Binder	binding result [1]
	MAPRGASCLLLLTSEIDLPVKRRA (also called F6A HN; F6A-HN) [Humanin analog F6A]	no binding (tested: 50 ng of peptide blotted)
binds	MAPRGFSCLLLLTSEIDLPVKRRA (50 ng was spotted on nitrocellulose in the dot blot; also called HN; human humanin) [Humanin]	
	MAPRGASCLLLLTGEIDLPVKRRA (not fully specified, also called F6AHNG; HN) [Humanin analog HNGF6A]	no binding (tested: 50 ng of peptide blotted)
